The text below walks through data of patent publication US10006080B2, “High-selectivity contact activation inhibitor based on infestin-4” (OBSCHESTVO S OGRANICHENNOY OTVETSTVENNOSTYU …, priority 2013, dated 2018).

For assay [1], the target named is T1, fXIIa (Homo sapiens, UniProt P00748).
T1 construct: it can be transformed into an active protease, factor XIIa (fXIIa)
Briefly: Chromogenic test of protease inhibition in buffer, fXIIa (substrate S-2302). The settings on record: versus fXIa, fXa, aPC; Table 2. Type of assay: biochemical. The protocol:
(§1) In order to assess selectivity of the fXIIa inhibition by the polypeptide comprising the sequence of the infestin-4 mutant MutB, its inhibitory activity in buffer solution against the purified coagulation factors was determined. The polypeptide's activity was compared with the known fXIIa inhibitors: CTI, infestin-4, infestin-4-based mutant Mut15, LCTI-III. […] The standard deviation amounted to about 50% of the average value; each value was measured by performing 2-3 repeats.
(§2) To determine the inhibition activity of such proteins as MutB, CTI, Inf4, Mut15, and LCTI-III as related to different coagulation proteases in a buffer, the chromogenic test was used: the mixture of protease and inhibitor was incubated in the wells of the plate for 15 minutes at 37° C., after which the chromogenic substrate solution was added to the mixture, and the protease activity was measured as the rate of chromogenic product formation at 37° C.
(§3) Chromogenic substrates included a p-nitroanilide group cleaved by the corresponding proteases. After cleavage of the p-nitroanilide group from the substrate molecule, the group absorption spectrum changes, and the change of concentration of such product within time can be detected at the light wavelength of 405 nm using a plate spectrophotometer. […]

Assay [2] has as its target fXa (Homo sapiens, UniProt P00742). Kind of assay: Chromogenic test of protease inhibition in buffer, fXa (substrate S-2765). It is filed as biochemical. The settings on record: buffer solution, summary of Table 2. The protocol: as §1, §2, §3
The target of assay [3] is T2, factor XIa (UniProt P03951 19-625).
T2 construct: also called fXIa
Briefly: chromogenic test (S-2366), IC50 converted by Cheng-Prusoff. How it is done:
as §2
(§4) Chromogenic substrates included a p-nitroanilide group cleaved by the corresponding proteases. After cleavage of the p-nitroanilide group from the substrate molecule, the group absorption spectrum changes, and the change of concentration of such product within time can be detected at the light wavelength of 405 nm using a plate spectrophotometer. To build a dependence curve of the protease activity from the inhibitor concentration, different inhibitor concentrations were added into several samples with the same protease concentration. After that, the inhibitor concentration able to decrease the protease activity by 50% (IC50) was determined. The inhibition constant Ki was calculated using the Cheng-Prusoff equation (Ki=IC50/(1+S/KM)), where S is the initial substrate concentration, KM is the Michaelis-Menten constant of the substrate to the protease.

The target of assay [4] is T3, factor XIIa (UniProt P00748 20-615, limits assumed).
T3 construct: also called fXIIa
T3 sequence (looked up): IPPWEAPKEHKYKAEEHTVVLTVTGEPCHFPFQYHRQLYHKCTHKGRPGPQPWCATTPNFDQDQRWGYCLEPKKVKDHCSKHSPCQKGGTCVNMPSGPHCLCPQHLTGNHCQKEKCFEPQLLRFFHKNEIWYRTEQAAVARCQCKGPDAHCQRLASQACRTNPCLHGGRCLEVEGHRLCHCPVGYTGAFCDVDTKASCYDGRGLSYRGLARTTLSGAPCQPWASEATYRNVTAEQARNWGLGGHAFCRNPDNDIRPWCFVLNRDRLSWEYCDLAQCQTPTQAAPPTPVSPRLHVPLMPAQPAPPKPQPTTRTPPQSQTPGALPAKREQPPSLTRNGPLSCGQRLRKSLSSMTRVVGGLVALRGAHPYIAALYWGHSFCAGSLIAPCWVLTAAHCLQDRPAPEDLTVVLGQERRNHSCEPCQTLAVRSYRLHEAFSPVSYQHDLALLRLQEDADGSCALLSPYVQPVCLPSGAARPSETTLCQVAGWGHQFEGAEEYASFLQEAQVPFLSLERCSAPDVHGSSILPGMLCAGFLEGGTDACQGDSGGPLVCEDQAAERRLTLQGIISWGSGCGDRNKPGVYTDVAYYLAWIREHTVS
Kind of assay: chromogenic test (S-2302), IC50 converted by Cheng-Prusoff. The protocol:
as §2, §4

Assay [5] concerns the target T4, activated protein C (UniProt P04070 43-197; P04070 212-461).
T4 construct: also called aPC
Kind of assay: chromogenic test (Spectrozyme pCa), IC50 converted by Cheng-Prusoff. How it is done: as §2, §4

Assay [6] deals with fibrinolysis. The following applies: supposedly by inhibiting the tissue activator of plasminogen; cited from earlier work.
Assay [7] concerns the target aPC (Homo sapiens, UniProt P04070). Kind of assay: Chromogenic test of protease inhibition in buffer, aPC (substrate Spectrozyme pCa). Type of assay: biochemical. The following applies: buffer solution, summary of Table 2. How it is done:
as §1, §2, §3

Sequence of fXa (P00742 235-488 limits assumed): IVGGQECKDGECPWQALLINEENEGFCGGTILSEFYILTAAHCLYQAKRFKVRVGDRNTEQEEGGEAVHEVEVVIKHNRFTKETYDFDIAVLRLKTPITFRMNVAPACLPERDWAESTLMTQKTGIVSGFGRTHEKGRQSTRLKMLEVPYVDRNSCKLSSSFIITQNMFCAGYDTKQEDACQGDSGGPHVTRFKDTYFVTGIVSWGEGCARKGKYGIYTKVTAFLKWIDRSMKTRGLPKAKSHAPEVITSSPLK
Sequence of fXa (P00742 41-179 partner limits assumed): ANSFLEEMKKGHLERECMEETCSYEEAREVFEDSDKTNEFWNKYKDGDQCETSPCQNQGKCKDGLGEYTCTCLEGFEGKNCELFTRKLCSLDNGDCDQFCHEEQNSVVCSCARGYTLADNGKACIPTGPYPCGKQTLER
Sequence of aPC (P04070 212-450 limits assumed): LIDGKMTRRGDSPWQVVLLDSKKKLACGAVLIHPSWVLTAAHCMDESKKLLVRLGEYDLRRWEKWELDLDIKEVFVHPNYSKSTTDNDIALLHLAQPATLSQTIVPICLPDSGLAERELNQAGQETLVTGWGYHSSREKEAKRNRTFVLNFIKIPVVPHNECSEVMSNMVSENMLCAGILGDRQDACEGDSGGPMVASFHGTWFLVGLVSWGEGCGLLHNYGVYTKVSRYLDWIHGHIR
Sequence of aPC (P04070 43-197 partner limits assumed): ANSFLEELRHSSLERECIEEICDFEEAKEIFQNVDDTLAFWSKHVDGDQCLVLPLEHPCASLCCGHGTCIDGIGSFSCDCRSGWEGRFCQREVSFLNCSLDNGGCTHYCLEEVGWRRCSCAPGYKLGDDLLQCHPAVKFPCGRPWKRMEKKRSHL
T4 sequence (P04070 43-197, form in doubt, chain 1 of 2): as the sequence (P04070 43-197 partner limits assumed) above
T4 sequence (P04070 212-461, form in doubt, chain 2 of 2): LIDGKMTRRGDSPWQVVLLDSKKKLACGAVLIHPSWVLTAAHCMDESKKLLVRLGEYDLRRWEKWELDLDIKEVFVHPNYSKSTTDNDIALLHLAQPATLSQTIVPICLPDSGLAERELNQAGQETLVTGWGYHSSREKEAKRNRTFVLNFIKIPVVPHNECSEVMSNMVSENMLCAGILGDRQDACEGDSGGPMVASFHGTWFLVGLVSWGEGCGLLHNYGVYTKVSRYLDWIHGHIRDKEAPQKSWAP

On to “MutB: polypeptide comprising the sequence of infestin-4 mutant MutB (SEQ ID NO: 1), inhibition loop TRNFVA; high-selectivity fXIIa inhibitor (EVRNPCACTRNFVAVCGSDGKTYGNPCMLNCAAQTKVPGLKLVHEGRCQRSNVEQF; Infestin-4 mutant MutB)”, for which, in assay [1], the “fXIIa inhibition selectivity among the said fXIIa inhibitors” value was “highest”. In assay [2], the “inhibition of fXa (in words)” value is given as “do not inhibit”.

B1: corn trypsin inhibitor (other, UniProt P01088 29-138, looked up)
chain: SAGTSCVPGWAIPHNPLPSCRWYVTSRTCGIGPRLPWPELKRRCCRELADIPAYCRCTALSILMDGAIPPGPDAQLEGRLEDLPGCPREVQRGFAATLVTEAECNLATIS
notes: Isolated from corn; also called CTI
One may read the Ki as the dissociation constant of the complex between target and ligand, obtained from inhibition or displacement. Read a low Ki as tighter binding. B1: the Ki in assay [3] stood at 15 µM; in assay [4], 0.001 µM; in assay [5], 20 µM. Further, the effect on fibrinolysis result in assay [6] is given as “can delay fibrinolysis”. Moreover, in assay [7], the “inhibition of aPC (in words)” value is listed as “inhibits”.
